From article PMC6138665

How the values were obtained:
LC3B [1] = molecular target: LC3B (UniProt Q9GZQ8); experiment: co-immunoprecipitation of Myc-AMBRA1, LC3 blot; details: reference: Myc-AMBRA1 wild type; sites S1014
LC3B [2] = molecular target: LC3B (UniProt Q9GZQ8); experiment: NMR HSQC titration of 15N-LC3B; details: reference: unphosphorylated peptide P0; sites S1014
LC3A = LC3A (UniProt Q9H492); experiment: ITC, peptide titrated into LC3A; details: reference: unphosphorylated peptide P0; sites S1014
LC3C = LC3C (UniProt Q9BXW4); experiment: ITC, peptide titrated into LC3C; details: reference: unphosphorylated peptide P0; sites S1014
Sequence of LC3C (Q9BXW4 whole entry, looked up): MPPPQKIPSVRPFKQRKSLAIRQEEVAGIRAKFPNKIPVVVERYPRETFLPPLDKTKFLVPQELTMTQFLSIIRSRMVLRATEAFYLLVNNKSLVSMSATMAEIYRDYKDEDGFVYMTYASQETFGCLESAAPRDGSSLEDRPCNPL

GABARAP-L1 = GABARAP-L1 (UniProt Q9H0R8); experiment: ITC, peptide titrated into GABARAP-L1; details: reference: unphosphorylated peptide P0; sites S1014
Sequence of GABARAP-L1 (Q9H0R8 whole entry, looked up): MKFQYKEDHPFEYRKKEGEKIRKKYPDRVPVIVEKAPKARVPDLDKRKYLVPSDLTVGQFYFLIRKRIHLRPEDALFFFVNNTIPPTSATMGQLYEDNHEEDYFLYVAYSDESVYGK

GABARAP-L2 = GABARAP-L2 (UniProt P60520); experiment: ITC, peptide titrated into GABARAP-L2; details: reference: unphosphorylated peptide P0; sites S1014
Sequence of GABARAP-L2 (P60520 whole entry, looked up): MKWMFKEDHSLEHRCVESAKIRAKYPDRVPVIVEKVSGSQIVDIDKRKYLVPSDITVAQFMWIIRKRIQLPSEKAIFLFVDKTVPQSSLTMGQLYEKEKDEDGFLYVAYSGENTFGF

AMBRA1 (from UniProt Q9C0C7-3) S1014A
binding against the reference (LC3B [1]): weaker

AMBRA1 AMBRA1-LIR (from UniProt Q9C0C7-3) pS1014 peptide P1
binding against the reference (LC3B [2]): stronger
binding against the reference (LC3A): stronger
binding against the reference (LC3C): stronger
binding against the reference (GABARAP-L1): stronger
binding against the reference (GABARAP-L2): stronger
